Measurements from patent US7943574B2, “Cell-permeable peptide inhibitors of the JNK signal transduction pathway” (Xigen SA, priority 2002, dated 2011).
“Also recorded” adds a separate entry of the source. Residues, ends and D or L forms follow the SMILES beside them.

Assays:
[1] = test system: developing rat cortical neurons; assay: Incubation of developing rat cortical neurons with peptide (toxicity, neuron number); conditions: 1 μM peptide, versus control developing rat cortical neurons (FIG. 4)
[2] = biological target: T1, SH3 domain of IB1 (MKK7 binding) (Homo sapiens, UniProt Q9UQF2); assay: Pull-down of 35S-labelled MKK7 on GST-SH3 domain of IB1; conditions: GST-SH3 domain of IB1, 35S-labelled MKK7 (FIG. 2)
T1 construct: the SH3 domains of IB1 and IB2 were subcloned using PCR into the pGEX-4T1 vector in frame with the GST; GST (N); made in house; host or cells: E. coli
T1 sequence (Q9UQF2 488-549 limits assumed): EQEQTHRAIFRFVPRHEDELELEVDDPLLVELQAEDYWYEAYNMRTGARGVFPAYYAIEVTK
Method: (§1) Effects of the αSH3 peptide on JNK biological activities were then studied. […] In the pull-down experiments, the SH3 domains of IB1 and IB2 were subcloned using PCR into the pGEX-4T1 vector in frame with the GST (Pharmacia). The recombinant proteins were produced in E. coli. Purification was performed in native conditions using a glutathione-agarose column (Pharmacia). ^35S-labelled MKK7 was then used in classical pull-down experiments.

[3] = biological target: T2, SH3 domain of IB2 (MKK7 binding) (Homo sapiens, UniProt Q13387); assay: Pull-down of 35S-labelled MKK7 on GST-SH3 domain of IB2; conditions: GST-SH3 domain of IB2, 35S-labelled MKK7 (FIG. 2)
T2 construct: the SH3 domains of IB1 and IB2 were subcloned using PCR into the pGEX-4T1 vector in frame with the GST; GST (N); made in house; host or cells: E. coli
T2 sequence (Q13387 604-665 limits assumed): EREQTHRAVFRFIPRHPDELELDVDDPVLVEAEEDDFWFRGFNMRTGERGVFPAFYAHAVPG
Method: as §1

| blocking of the binding of MKK7 to IB1 [2] | blocking of the binding of MKK7 to IB2 [3] | Compound | toxicity on developing neurons (residual necrotic bodies) [1] |
| --- | --- | --- | --- |
| – | – | CSCC[C@H](NC(=O)CNC(=O)[C@@H](NC(=O)[C@H](CO)NC(=O)[C@@H](NC(=O)[C@H](CO)NC(=O)[C@H](CCCNC(=N)N)NC(=O)[C@H](CCCNC(=N)N)NC(=O)[C@H](CCCNC(=N)N)NC(=O)[C@H](CCC(N)=O)NC(=O)[C@H](CCCNC(=N)N)NC(=O)[C@H](CCCNC(=N)N)NC(=O)[C@H](CCCCN)NC(=O)[C@H](CCCCN)NC(=O)[C@@H](N)CCCNC(=N)N)C(C)C)C(C)C)C(=O)N1CCC[C@H]1C(=O)N1CCC[C@H]1C(=O)N[C@@H](CO)C(=O)N1CCC[C@H]1C(=O)N[C@@H](CCCNC(=N)N)C(=O)N1CCC[C@H]1C(=O)O [TAT-αSH3] (H-RKKRRQRRRSVSVGMPPSPRP-OH) | lacked residual necrotic bodies; also recorded: not toxic |
| efficiently blocks | efficiently blocks | αSH3: consensus SH3 binding peptide, 12 aa, SVSVGMPPSP RP (SVSVGMPPSPRP) | – |
